The record followed here is patent US20170137838.

The data set concerns ONAC131 (Os12g03040.1) (Oryza sativa subsp. japonica cv. Nipponbare).
The mark [1] stands for this setting: relative to SO1, SD 0.05, CELD assay.
Where [2] appears, read: relative to SO1, SD 0.01, CELD assay.
The mark [3] stands for this setting: relative to SO1, SD 0.03, CELD assay.

Where two headings read alike, the source gives them in different places.

As to “GCCAGCGTTCTGTTTCTGTACGTCTCTCTGGG (double strand) [Arabidopsis glyoxalase I family 5'-UTR element]”, the binding signal (relative to SO1, SD 0.03, same sequence as rice chitinase site I) amounted to 1.07.
Sequence “GAGGTGTTTAATGTTTACACGTCTCTAGTG (double strand) [SO39 (TaNAC69 high affinity binding site II)]” registered a binding signal under setting [1] of 0.93.
“GAGATCTGTGCACAGTACGTAACTGTTACA (double strand) [SO1m28]” displayed a binding signal under setting [2] of 0.01.
“GAGATCCGTGCACAGTACGTAACTGTTACA (double strand) [SO1 (TaNAC69 high affinity binding site I)]” returned a binding signal (CELD reporter assay on streptavidin plate, reference, SD 0.03, pH 7.0, 50 mM KCl, 2 mM MgCl2) of 1.
For “GATTTGTCTCGTAATTTACACGTAATCTGTGT (double strand) [Rice ZIM family protein promoter element]”, the binding signal under setting [1] came to 0.43.
“GAGATCCGTGCACAGTAAATAACTGTTACA (double strand) [SO1m14]” registered a binding signal (relative to SO1, CELD assay) of 0.
“TTCCGTAGTTTACTGGATCACGACACACACAC (double strand) [Rice chitinase site III]”: the binding signal (relative to SO1, SD 0.02, CELD assay) is 0.15.
“GCCAGCGTTCTGTTTCTGTACGTCTCTCTGGG (double strand) [Rice chitinase site I]” gave a binding signal under setting [3] of 1.07.
Same read-out and setting: the same measure for “CACTTGACACGTGGGATCCACGTCACCATCCT (double strand) [Rice glyoxalase I family promoter element]”: 0.29.
Sequence “AATCCACCGCCATAAATCTACGTAACAAGTCA (double strand) [Rice chitinase site II]” registered a binding signal (relative to SO1, CELD assay) of 0.
“GAGGCCCTTAATGTTTACACGTCTCTAGTG (double strand) [SO39m6]” came in with a binding signal under setting [2] of 0.18.
